The text below walks through data of the DeepSol protein solubility set.

A short description of this data set: soluble on expression in E. coli; label from the status in PepcDB or PDB records.
Turning to “MAHHHHHHMRAESSGSESQSRQSERTCGVSPGGPGGPGASPSIVVAVRKRPRIPGREDDENDVVRCGENGGPSVTVYEPRTKLDLTPIIEPSSFSYDHVFGEACTNEEVYRGCCQPLLQNVREGGGAVIFAFGQTGSGKTHTMLGTGERPGLYSLAVTELLTMTEHSTMTASFYEAYGAKLYDLLNDRAEVKMLQDEYQNVHIVGITEQIVSSVDDVNALMMRGQQLRAIGTTHANDRSSRSHAVLEIKLKLADSSSESQLGRITFVDLAGSERASDTAETDAKTRREGAEINKSLLALKECIRAMSMRKRHIPFRGSKLTQILRESFVGRCKTCVIAAISPCQGHCEDTLNTLRYADRIKELKGPANPHNGVKPIPCKTCGQPIFIGDRHVCKRQLVVCPHCRQDVDKQELDTHMSECKESPMRCQYCNERMLRSESVGHSRRCARAPIRCGACGATVPRQLIDRHAQQECAEAKVKCRYCGCVQSRQLLAAHEQNCDAAKVACPHCLQFMRKRRLDGHVATCVRNLSRAMHTPRSTALNIIASTSMETSQTLASSSSSIGAQQSIPKSATAQTAASSRASSSHNRNVAAEPAGGQVDLVAADEGTGPLNFTRAHSSRRSSAQLASGVSLANQSQSNRAPGAGGRWNAGALGADEVSAACDSDCGSVVCPYSRYGCPVKVTRLNVAAHLKESMQQHLELVTTYADRVDEQNMQLRRLVIHETDTLSSRVTMERLDK”, the “soluble on expression in E. coli” value is recorded as “not soluble”. Then “MSLELSQKKWKSFKISEIFRIESCKCGNASLLEDGDDLFYRGAKKNDNGVIRRVKRIDSLVSKGNCIMFICDGDGSCGYTNYISDDFIGSTTTSVGYNENLNVYIGTFITTILDMHKYKYSHSRKYRNSLLNEILILPINNDGIPDWKWIEEYMKSLSGSINTQIYDIIDTADGDRNIVKFFINKIEASDFKLWLQDNANMDVNNQMSLKDVKWKGFKLSELFNIERGCRLKKSNRITGNTLLITAGKENHGIAMYVEPPMNSEGNLINKIYKDRLTIDMFCNSFYQSENFICDDNILVLIEKQKMTKNIKHFIATILSMDIYKFSFTRQYRQKDFNKHIIMLPINDKGNLDWEWIEEYMKSLPYSDKETRLFVNTIEGHHHHHH”, with “soluble”; and “MTESKTAIIFDMDGVLVDSEAYYYERRKAFLAEFDLTIEGLTLPELVGADMRSLWQKIEQVNKKELDIAFLNEQYIAYKKAHPIDYLAVLDENAKRVLQFLKRQGYKIGLASSSTKDAIEEVLTVGQLSSYFDAVVSGEDFEESKPAPDIYLHTLQELAVAPQECIAIEDSEKGIASAKEAGLEVWAMRDEHFGMDQSQADAFLTQLSDICKKISENRIDESSESTPS”, with “not soluble”; and “SFDRALKPFLQSCHLRMLTDPVDQCVAYHLGRVRESLPELQIEIIADYEVHPNRRPKILAQTAAHVAGAAYYYQRQDVEADPWGNQRISGVCIHPRFGGWFAIRGVVLLPGIEVPDLPPRKPHDCVPTRADRIALLEGFNFHWRDWTYRDAVTPQERYSEEQKAYFSTPPAQRLALLGLAQPSEKPSSPSPDLPFTTPAPKKPGNPSRARSWLSPRVSPPASPGP”, with “soluble”. As for “ENSHNKARTSPYPGSKVERSQVPNEKVGWLVEWQDYKPVEYTAVSVLAGPRWADPQISESNFSPKFNEKDGHVERKSKNGLYEIENGRPRNPAGRTGLVGRGLLGRWGPNHAADPIITRWKRDSSGNKIMHPVSGKHILQFVAIKRKDCGEWAIPGGMVDPGEKISATLKREFGEEALNSLQKTSAEKREIEEKLHKLFSQDHLVIYKGYVDDPRNTDNAWMETEAVNYHDETGEIMDNLMLEAGDDAGKVKWVDINDKLKLYASHSQFIKLVAEKRDAHWSEDSEADCHAL”, the “soluble on expression in E. coli” value is listed as “soluble”. With “MGSDKIHHHHHHMDYYAGIDVSLELSSVCIVNQDGKIFREVKVASDPEALIGLFGGLGVALSRIGLEAGPLSQWLHAGLTAGGYDVVLLETRHVKAGLSAMTVKTDRKDARGIAHLLRMGWFRPVHCKTNSAQEIRVLLVGRKLLQSKMGDLEQGIRGLLRGFGLKVGVISKGRFAARIRELVAGQAMLETVAEPMLRARDALRAEFTLLHRQILAIVRKDDLCRRLMTVPGVGPLVALTFKSGIDDPSRFTSSKTVGAHFGLTPKKYQSGETDITGGITRTGDAMVRMALYEAAQVLLTRSQRFSSLKRWALEVAKRRGMKRAKVALARKLATVLHRMWIDGSDFRWGKEITSA” the entry was “not soluble”; with “MAHHHHHHMSDQINVKHKIGDTCRKLYSYFKTVNNTSTFIQNGTLTPSEFVDSGDFLVYKFKTWEWQEADKDRVVPYLPENKQFLITKNVPCKQRIKDLNNIVHDLIMIGYSQVMKKITIPQIYMNIYLIVNTQLMTKMYKMYKITSCYSKNMLHDSNSFKNNFIIIIKNFTCLNIITYDKYYQTPRIWLFGYNENGDPLKSEEIFEDILSDYSYKTVTVKIKIIFMILIRVLVHAEAILNVVNNWISEEKEPRIKKRINVYMYVFCFRHDLYLLFLLKFISGVIPTIEYDFTTDIEIPRDSNAGL”, “not soluble”; with “MKMFNIASEDDIKKGLASDVYFERSISTLTETCKDHRVAMEATVSGPLDTWINFSGLDEVLKLLEGIDVDVFAIPEGTILYPRDSNGIPVPFIRIEGNYCDFGMYETSILGMICQASGISTKSSKVRIAAGDCPFFSFGIRRMHPAVSPMIDRSAFIGGADGVSGILGAKLIGEEPIGTMPHALSIILGDDEAWRLTLKNTKNGQKSVILIDTYMDEKFAAIKVAEEFEHVDYIRLDTPSSRRGNFEALVREVKWELALRGRSDIKIMVSGGLDENTVAKLREAGAQAFGVGTSISSAKPFDFALDIVSIDDKPKTKRGKLSGKKSVLRCEKCRKVEVVPYGVESKPCSCGGVMHNIIVKYMEHGKLLSQYPEPKEIRKRTLSELEYFRSSN”, “soluble”.

As for “MSDTANTAVEVDEQVIEKKLDDLSIGKKRSPSKDDTSKHRLPAAERIRIWEEEQKAKIVLTAGLQGKVKWYSVLRRYGFISRSDGEKDVFVHQTAISKSDTEKFYLRTLADEEEVLFDLVDGKNGPEAANVTGPAGVNVSGSKYRHQLLSRFRKNRKPKIVVGEDFDSKETEKLVEAPAVAMEKKKQRKQRKNKNRKQKDQKGAGDAADSSATTESLGTSSETASPDSKSCTKIISEEAGLSKIDRCDSALDDAGLGAQLIDAQI”, the “soluble on expression in E. coli” value is recorded as “soluble”. For “DIELTQSPATLSVTPGNSVSISCRASQSLVNEDGNTYLFWYQQKSHESPRLLIKYASQSISGIPSRFSGSGSGTDFTLSINSVETEDLAVYFCQQITDWPFTFGGGTKLEIKRADAAPTVSIFPPSSEQLTSGGASVVCFLNNFYPKDINVKWKIDGSERQNGVLNSWTDQDSKDSTYSMSSTLTLTKDEYERHNSYTCEATHKTSTSPIVKSFNRNEC”, the “soluble on expression in E. coli” value is listed as “soluble”. With “SSSESEKDKERLIQAAKLFFFHIRDLVSFINRFVELFNLTMKTQILPMNLNEESCIKDFFEQMIRNFKEMQLMVDGKHKQMQKEPLCSKVLTAMTSAVEKCATIAPHHTAEDMLRNIQTSGAALVLKTSHVLVNLETSLSLLMQFPIMGLRLSDLYREETKEQSDATSDATTSEKNKSPECPKATTEETLRKLQDVLSPENAHTPVEAAADELEQFVKSMEITLQVLQKSIKTMEGDIFVLTQVQGK” the entry was “soluble”.

Turning to “MSLARIIVVTSGKGGVGKTTSSAAIATGLAQKGKKTVVIDFDIGLRNLDLIMGCERRVVYDFVNVIQGDATLNQALIKDKRTENLYILPASQTRDKDALTREGVAKVLDDLKAMDFEFIVCDSPAGIETGALMALYFADEAIITTNPEVSSVRDSDRILGILASKSRRAENGEEPIKEHLLLTRYNPGRVSRGDMLSMEDVLEILRIKLVGVIPEDQSVLRASNQGEPVILDINADAGKAYADTVERLLGEERPFRFIEEEKKGFLKRLFGGEGHHHHHH”, the “soluble on expression in E. coli” value was “soluble”. With “MEIAKEIKDFLTTRRARITPDQVGLPTGGRRRVAGLRREVVAMLAGVSAEYYVQIERGGVSGVSDEVLYAIATALRLDDEETKHLFTLARAASTRPRRRIAPRARVEVPEPVQALVDAMITAPAVVQNGHLDIVAVNALGRALYADVFDRSDGVPNLARFIFLDRRAGETFPDWNHAADDAVAILRSEAARSPYSAAVTGLVGELATRSDEFRTRWATHDIKAHRRGTKRFHHPVVGDLTLRFEALEVASAAGLTLFGFTAEPGSPSEESLRLLSSWAASDRPEHQHS” the entry was “not soluble”.
